Test results: paper PMC3934934, “The Self-Interaction of a Nodavirus Replicase Is Enhanced by Mitochondrial Membrane Lipids” (PLoS ONE, 2014)

Assays:
Settings in all cases: one partner purified
[1] = target: T1, MBP-tagged full-length (FL) WhNV protein A (Wuhan nodavirus (WhNV), UniProt Q3KSM3 1-1014); assay: pull-down
T1 construct: also called MBP-protA; 1–1014 MBP/protA; source: E. coli strain TB1, purified (amylose resin); not shown: MBP, N-terminal, kept
T1 sequence: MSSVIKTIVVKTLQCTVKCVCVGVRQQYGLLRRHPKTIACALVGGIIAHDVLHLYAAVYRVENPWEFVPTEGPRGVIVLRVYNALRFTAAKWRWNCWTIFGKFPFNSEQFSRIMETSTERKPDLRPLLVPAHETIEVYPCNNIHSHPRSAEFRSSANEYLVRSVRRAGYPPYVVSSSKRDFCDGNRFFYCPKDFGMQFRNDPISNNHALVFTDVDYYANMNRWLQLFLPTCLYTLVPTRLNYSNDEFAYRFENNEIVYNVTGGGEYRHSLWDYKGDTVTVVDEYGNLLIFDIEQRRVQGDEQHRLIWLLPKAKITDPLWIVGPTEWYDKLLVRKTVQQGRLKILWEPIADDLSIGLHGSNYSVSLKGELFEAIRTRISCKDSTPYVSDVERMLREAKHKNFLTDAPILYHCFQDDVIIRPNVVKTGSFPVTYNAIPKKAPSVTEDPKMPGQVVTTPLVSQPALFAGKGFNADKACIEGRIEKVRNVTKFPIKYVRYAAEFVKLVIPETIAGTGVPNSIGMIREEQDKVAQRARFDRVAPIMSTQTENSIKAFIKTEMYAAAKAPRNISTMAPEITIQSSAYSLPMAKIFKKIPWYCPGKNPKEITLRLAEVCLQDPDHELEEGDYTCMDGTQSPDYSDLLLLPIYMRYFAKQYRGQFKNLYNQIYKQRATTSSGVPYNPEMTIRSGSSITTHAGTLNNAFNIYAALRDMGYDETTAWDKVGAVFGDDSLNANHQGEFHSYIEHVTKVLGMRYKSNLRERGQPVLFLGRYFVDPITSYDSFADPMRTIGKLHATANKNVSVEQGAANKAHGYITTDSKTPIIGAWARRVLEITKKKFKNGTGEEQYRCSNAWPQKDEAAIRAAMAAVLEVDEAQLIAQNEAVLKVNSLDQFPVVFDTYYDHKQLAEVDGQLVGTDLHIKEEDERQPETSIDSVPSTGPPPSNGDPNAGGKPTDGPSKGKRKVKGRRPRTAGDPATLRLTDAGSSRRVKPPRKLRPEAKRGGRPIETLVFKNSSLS

[2] = target: T2, MBP-protA fragment aa 481–659 (Wuhan nodavirus (WhNV), UniProt Q3KSM3 481-659); assay: pull-down; MBP fusion protein (1 µM) held on amylose resin, His-tagged protein (1 µM) in vitro translated in rabbit reticulocyte lysate; room temperature, 4 hrs; no lipids; Western blot with anti-His; signals given as % of FL to FL protein A self-interaction
T2 construct: source: E. coli strain TB1, purified (amylose resin); not shown: MBP, N-terminal, kept
T2 sequence: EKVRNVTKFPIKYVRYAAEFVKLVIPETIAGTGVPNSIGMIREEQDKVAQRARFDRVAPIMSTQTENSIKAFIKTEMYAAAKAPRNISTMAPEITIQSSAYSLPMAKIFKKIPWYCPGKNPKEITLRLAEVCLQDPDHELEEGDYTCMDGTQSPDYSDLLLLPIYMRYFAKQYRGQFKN

[3] = target: T3, MBP-protA fragment aa 255–480 (Wuhan nodavirus (WhNV), UniProt Q3KSM3 255-480); assay: as above
T3 construct: source: E. coli strain TB1, purified (amylose resin); not shown: MBP, N-terminal, kept
T3 sequence: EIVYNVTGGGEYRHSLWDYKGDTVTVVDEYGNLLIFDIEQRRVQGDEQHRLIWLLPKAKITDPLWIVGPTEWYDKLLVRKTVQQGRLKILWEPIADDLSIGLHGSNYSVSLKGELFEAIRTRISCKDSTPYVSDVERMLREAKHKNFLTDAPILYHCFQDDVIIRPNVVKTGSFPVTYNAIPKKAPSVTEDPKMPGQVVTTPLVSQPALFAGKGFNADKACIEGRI

B1: His-tagged WhNV protein A, in vitro translated (natural protein)
chain: MSSVIKTIVVKTLQCTVKCVCVGVRQQYGLLRRHPKTIACALVGGIIAHDVLHLYAAVYRVENPWEFVPTEGPRGVIVLRVYNALRFTAAKWRWNCWTIFGKFPFNSEQFSRIMETSTERKPDLRPLLVPAHETIEVYPCNNIHSHPRSAEFRSSANEYLVRSVRRAGYPPYVVSSSKRDFCDGNRFFYCPKDFGMQFRNDPISNNHALVFTDVDYYANMNRWLQLFLPTCLYTLVPTRLNYSNDEFAYRFENNEIVYNVTGGGEYRHSLWDYKGDTVTVVDEYGNLLIFDIEQRRVQGDEQHRLIWLLPKAKITDPLWIVGPTEWYDKLLVRKTVQQGRLKILWEPIADDLSIGLHGSNYSVSLKGELFEAIRTRISCKDSTPYVSDVERMLREAKHKNFLTDAPILYHCFQDDVIIRPNVVKTGSFPVTYNAIPKKAPSVTEDPKMPGQVVTTPLVSQPALFAGKGFNADKACIEGRIEKVRNVTKFPIKYVRYAAEFVKLVIPETIAGTGVPNSIGMIREEQDKVAQRARFDRVAPIMSTQTENSIKAFIKTEMYAAAKAPRNISTMAPEITIQSSAYSLPMAKIFKKIPWYCPGKNPKEITLRLAEVCLQDPDHELEEGDYTCMDGTQSPDYSDLLLLPIYMRYFAKQYRGQFKNLYNQIYKQRATTSSGVPYNPEMTIRSGSSITTHAGTLNNAFNIYAALRDMGYDETTAWDKVGAVFGDDSLNANHQGEFHSYIEHVTKVLGMRYKSNLRERGQPVLFLGRYFVDPITSYDSFADPMRTIGKLHATANKNVSVEQGAANKAHGYITTDSKTPIIGAWARRVLEITKKKFKNGTGEEQYRCSNAWPQKDEAAIRAAMAAVLEVDEAQLIAQNEAVLKVNSLDQFPVVFDTYYDHKQLAEVDGQLVGTDLHIKEEDERQPETSIDSVPSTGPPPSNGDPNAGGKPTDGPSKGKRKVKGRRPRTAGDPATLRLTDAGSSRRVKPPRKLRPEAKRGGRPIETLVFKNSSLS
notes: also called His-protA; FL His-protA; source: in vitro translated in nuclease-treated rabbit reticulocyte lysates
B1 was tested. Which “fold of the self-interaction without MMLs, at 1 µg/µl MMLs” value [1] did it give?
Its value is roughly 4.6 fold.

What about the “fold of the self-interaction without MMLs, at 2 µg/µl MMLs” value [1] of the same binder?
Its value is roughly 9 fold.

And the “fold of the self-interaction without MMLs, at 5 µg/µl MMLs” value [1]?
The value was roughly 12 fold.

What about the “self-interaction efficiency, % of FL to FL protein A self-interaction” value [2] of the same binder?
The value was 17%.

And the “self-interaction efficiency, % of FL to FL protein A self-interaction” value [3]?
Its value is 52%.
